± gives the uncertainty stated by the source.
B1: Zinc finger homeobox protein 3, residues 2643 to 2698; numbered along this chain, Q15911 (parent)
chain: RLRTTITPEQLEILYQKYLLDSNPTRKMLDHIAHEVGLKKRVVQVWFQNTRARERK

Variants of: B1
Test: abundance fitness (aPCA) (normalised: wild type 0, dead -1); higher = more abundant; growth selection in yeast, the domain comes from the species named
Conditions: Homo sapiens

| Variant | abundance fitness |
| --- | --- |
| H31G | 0.198 ± 0.075 |
| H31I | 0.009 ± 0.16 |
| H31A | 0.109 ± 0.083 |
| Y18M | -0.373 ± 0.14 |
| Y18H | -1.03 ± 0.35 |
| Y18P | -0.847 ± 0.19 |
| Y18C | -0.696 ± 0.13 |
| Y18D | -0.96 ± 0.17 |
| Y18W | -0.401 ± 0.13 |
| Y18K | -0.662 ± 0.22 |
| Y18F | 0.251 ± 0.17 |
| L14H | -0.793 ± 0.26 |
| L14A | -0.908 ± 0.13 |
| L14E | -0.791 ± 0.12 |
| L14M | -0.17 ± 0.11 |
| L14G | -0.956 ± 0.086 |
| L14P | -0.879 ± 0.24 |
| L14Q | -0.895 ± 0.14 |
| V36Y | -0.896 ± 0.19 |
| V36I | 0.191 ± 0.12 |
| M28I | -0.557 ± 0.43 |
| A52M | -0.138 ± 0.11 |
| A52V | -0.349 ± 0.082 |
| A52F | -0.428 ± 0.2 |

| Variant | abundance fitness |
| --- | --- |
| A52D | 0.244 ± 0.12 |
| A52I | -0.639 ± 0.18 |
| T25E | -0.081 ± 0.099 |
| T25N | -0.206 ± 0.2 |
| T25Q | -0.505 ± 0.16 |
| T25L | -0.552 ± 0.095 |
| T25C | -0.191 ± 0.12 |
| T25K | -0.506 ± 0.15 |
| T25M | -0.256 ± 0.12 |
| T5Y | -0.319 ± 0.24 |
| T5R | -0.498 ± 0.096 |
| V42W | -0.048 ± 0.1 |
| V42E | 0.387 ± 0.095 |
| V42A | -0.123 ± 0.095 |
| V42F | -0.47 ± 0.17 |
| V42Y | -0.021 ± 0.15 |
| V42Q | -0.372 ± 0.14 |
| V42P | -0.932 ± 0.16 |
| V42L | -0.03 ± 0.087 |
| N49H | -0.412 ± 0.24 |
| N49A | -0.2 ± 0.093 |
| N49G | -0.234 ± 0.078 |
| N49C | -0.496 ± 0.12 |
| N49L | -0.334 ± 0.099 |

| Variant | abundance fitness |
| --- | --- |
| N49I | -0.267 ± 0.17 |
| N49T | 0.04 ± 0.12 |
| V45A | -0.365 ± 0.096 |
| V45H | -0.001 ± 0.15 |
| V45F | -0.028 ± 0.15 |
| V45T | -0.24 ± 0.11 |
| V45S | -0.359 ± 0.097 |
| K40R | -0.064 ± 0.082 |
| K40A | 0.144 ± 0.08 |
| K40V | 0.161 ± 0.079 |
| K40T | 0.355 ± 0.1 |
| K40L | 0.283 ± 0.09 |
| K40H | -0.049 ± 0.16 |
| K40S | 0.237 ± 0.092 |
| Q44R | -0.331 ± 0.094 |
| Q44H | -0.038 ± 0.15 |
| Q44S | -0.044 ± 0.097 |
| Q44Y | -0.114 ± 0.12 |
| Q44P | -0.723 ± 0.12 |
| Q44I | -0.286 ± 0.13 |
| L29Q | -0.254 ± 0.12 |
| L29H | -0.766 ± 0.2 |
| L29R | -0.544 ± 0.079 |
| L29F | 0.069 ± 0.12 |

| Variant | abundance fitness |
| --- | --- |
| L29D | -0.805 ± 0.15 |
| E35K | -0.356 ± 0.15 |
| E35F | -0.557 ± 0.15 |
| E35M | -0.417 ± 0.11 |
| K17E | 0.007 ± 0.12 |
| K17T | -0.59 ± 0.16 |
| K17N | 0.228 ± 0.15 |
| K17L | -0.303 ± 0.099 |
| V43D | -0.867 ± 0.15 |
| V43T | -0.548 ± 0.11 |
| V43P | -0.739 ± 0.14 |
| V43F | -0.815 ± 0.28 |
| R3G | 0.228 ± 0.076 |
| R3M | 0.317 ± 0.12 |
| R3I | 0.19 ± 0.14 |
| R3Y | 0.006 ± 0.17 |
| R3A | 0.493 ± 0.083 |
| H34N | -0.044 ± 0.18 |
| H34K | 0.213 ± 0.16 |
| H34Y | -0.012 ± 0.12 |
| H34E | 0.099 ± 0.16 |
| H34D | 0.035 ± 0.15 |
| H34L | -0.225 ± 0.084 |
| H34P | -0.739 ± 0.12 |

| Variant | abundance fitness |
| --- | --- |
| H34W | -0.095 ± 0.1 |
| I6G | -0.543 ± 0.11 |
| I6K | -0.392 ± 0.1 |
| I6H | -0.332 ± 0.09 |
| I6S | -0.648 ± 0.081 |
| I6M | 0.068 ± 0.094 |
| I6L | 0.051 ± 0.072 |
| I6Y | 0.035 ± 0.081 |
| I6T | -0.211 ± 0.081 |
| I6R | -0.868 ± 0.1 |
| L2Q | 0.102 ± 0.21 |
| L2S | 0.331 ± 0.1 |
| L2E | 0.17 ± 0.15 |
| L2N | 0.232 ± 0.21 |
| Q16V | 0.357 ± 0.08 |
| Q16P | -1.08 ± 0.21 |
| Q16L | 0.572 ± 0.096 |
| Q16F | 0.042 ± 0.22 |
| Q16R | -0.174 ± 0.082 |
| Q16Y | -0.436 ± 0.16 |
| Q16W | -0.615 ± 0.13 |
| T7N | -0.338 ± 0.2 |
| T7L | -0.212 ± 0.083 |
| T7R | -0.443 ± 0.082 |

| Variant | abundance fitness |
| --- | --- |
| T7M | -0.228 ± 0.15 |
| T7C | -0.244 ± 0.12 |
| T7A | 0.08 ± 0.084 |
| K56H | -0.17 ± 0.4 |
| K56N | -0.07 ± 0.21 |
| K39E | 0.518 ± 0.13 |
| K39W | -0.77 ± 0.11 |
| K39Y | -0.114 ± 0.22 |
| K39A | 0.236 ± 0.087 |
| K39V | -0.01 ± 0.092 |
| K39R | -0.012 ± 0.074 |
| K39L | -0.324 ± 0.1 |
| K39C | 0.184 ± 0.12 |
| L20T | -0.057 ± 0.11 |
| L20N | -0.27 ± 0.14 |
| L20I | -0.056 ± 0.17 |
| P24K | -0.935 ± 0.21 |
| P24W | -0.165 ± 0.088 |
| P24E | -0.78 ± 0.14 |
| P24V | -0.785 ± 0.088 |
| P24M | -0.777 ± 0.16 |
| P24L | -0.79 ± 0.11 |
| P24F | -0.644 ± 0.17 |
| P24C | -0.96 ± 0.17 |

| Variant | abundance fitness |
| --- | --- |
| P24G | -0.857 ± 0.088 |
| P24H | -0.687 ± 0.19 |
| E12W | -0.749 ± 0.12 |
| E12Y | -0.454 ± 0.15 |
| E12L | -0.188 ± 0.086 |
| E12S | -0.114 ± 0.088 |
| E12F | -0.282 ± 0.13 |
| L38W | -0.746 ± 0.11 |
| L38G | -0.972 ± 0.092 |
| L38Y | -1 ± 0.41 |
| L38F | -0.819 ± 0.22 |
| L38M | -0.009 ± 0.13 |
| L38H | -0.737 ± 0.19 |
| L38K | -0.712 ± 0.17 |
| T50E | 0.342 ± 0.11 |
| T50Y | -0.048 ± 0.15 |
| T50F | -0.322 ± 0.19 |
| T50H | -0.11 ± 0.17 |
| T50C | -0.078 ± 0.11 |
| T50N | -0.572 ± 0.36 |
| T50K | -0.091 ± 0.13 |
| E9Q | -0.038 ± 0.1 |
| E9G | -0.234 ± 0.081 |

Source: the Human Domainome abundance scans (Beltran et al. 2025)
